The results in this text go back to patent publication US20080108135A1 (University of California, published 2008).

Read-outs that look alike come from different tables or passages of the source.

Test [1] has as its target ErbB2 on tumor cell lines (SKBR3, SK-OV-3, MCF7) (UniProt P04626). The test can be described thus: 5.0 × 10^11 phage on about 1.0 × 10^5 SKBR3 cells at 37 C, surface bound phage eluted with low pH glycine, titered on E. coli TG1.
Test [2] shares this target. The test can be described thus: cell-based or functional assay.
Test [3] shares this target.
For test [4], the target named is T1, ErbB2 (form in the assay not stated) (UniProt P04626 23-1255).
T1 construct: also called c-erbB-2
The test can be described thus: method not stated.

Test [5] addresses T1, ErbB2 (form in the assay not stated). The test can be described thus: competition by flow cytometry, panel 'C1 phage binding': soluble scFv inhibits binding of C1 phage; % of maximal MFI. On the technique in general: Flow cytometry measures light scatter and fluorescence of single cells or particles in a stream.

In the case of C6.5 diabody phage, in test [1], the titer of cell surface bound phage, 1st glycine wash turned out to be 1.8e+07 phage titer and the titer of cell surface bound phage, 2nd glycine wash came to 2.8e+06 phage titer. Besides, in test [2], the Lysed cell fraction (titer of internalized phage), SKBR3 cells is 1.7e+07 phage titer and the cells with internalized phage, confocal microscopy, SKBR3 cells is 20 % of cells.
In the case of “C6.5 phage (anti-ErbB2 C6.5 scFv displayed on phage)”, in test [1], the titer of cell surface bound phage, 1st glycine wash was found to be 1.2e+07 phage titer and the titer of cell surface bound phage, 2nd glycine wash turned out to be 5.2e+06 phage titer. In addition, the Lysed cell fraction (titer of internalized phage), SKBR3 cells in test [2] was 6.8e+07 phage titer.
On to C6.5cys scFv conjugated to liposomes, for which, in test [2], the Total uptake of scFv-conjugated liposomes by SKBR3 cells is 3.4 and the share of the liposome uptake that was internalized, SKBR3 cells came out at 70%.
With irrelevant anti-Botulinum phage (scFv), in test [3], the titer of cell surface bound phage, 1st glycine wash was 600000 phage titer and the titer of cell surface bound phage, 2nd glycine wash came to 100000 phage titer. The Lysed cell fraction (titer of internalized phage), SKBR3 cells in test [2] was 600000 phage titer.

B1: F5 scFv (native purified soluble scFv) (scFv, not shown: small tags and cut ends)
scFv: QVQLVESGGGLVQPGGSLRLSCAASGFTFRSYAMSWVRQAPGKGLEWVSAISGRGDNTYYADSVKGRFTISRDNSKNTLYLQMNSLRAEDTAVYYCAKMTSNAFAFDYWGQGTLVTVSSGGGGSGGGGSGGGGSQSVLTQPPSVSGAPGQRVTISCTGSSSNIGAGYGVHWYQQLPGTAPKLLIYGNTNRPSGVPDRFSGFKSGTSASLAITGLQAEDEADYYCQSYDSSLSGWVFGGGTKLTVLG
notes: also called 3TF5; scFv-F5
The term Kd denotes the free concentration of one partner at which half of the binding sites on the other are occupied at equilibrium, for simple one-to-one binding. Molecule B1 yielded an equilibrium dissociation constant (Kd) in test [4] of 320 nM. In test [5], the “IC50 (read off the curve)” value is ~200 nM.
